Key:
Assay in all cases: co-IP; LUMIER: Renilla luciferase-Smad3 and Flag-tagged partner co-expressed with constitutively active Alk5 in HEK-293; Flag protein captured from cleared lysate (TNE: 10 mM Tris-HCl pH 7.8, 150 mM NaCl, 1 mM EDTA, 1% Igepal CA-630) on anti-Flag 96-well plates, 2 h at 4 °C; co-precipitated Renilla luciferase activity, TrxGA background subtracted, percent of wild-type Smad3
Settings in all cases: partners not purified
Flag-Smad4, full length = biological target: T1, Flag-Smad4, full length (UniProt Q13485 1-552)
T1 construct: Smad4; plasmid pCMV5-Flag-Smad4 (from J. Massagué); also called Smad4 FL; source: HEK-293, transfected, in lysate
T1 sequence (looked up): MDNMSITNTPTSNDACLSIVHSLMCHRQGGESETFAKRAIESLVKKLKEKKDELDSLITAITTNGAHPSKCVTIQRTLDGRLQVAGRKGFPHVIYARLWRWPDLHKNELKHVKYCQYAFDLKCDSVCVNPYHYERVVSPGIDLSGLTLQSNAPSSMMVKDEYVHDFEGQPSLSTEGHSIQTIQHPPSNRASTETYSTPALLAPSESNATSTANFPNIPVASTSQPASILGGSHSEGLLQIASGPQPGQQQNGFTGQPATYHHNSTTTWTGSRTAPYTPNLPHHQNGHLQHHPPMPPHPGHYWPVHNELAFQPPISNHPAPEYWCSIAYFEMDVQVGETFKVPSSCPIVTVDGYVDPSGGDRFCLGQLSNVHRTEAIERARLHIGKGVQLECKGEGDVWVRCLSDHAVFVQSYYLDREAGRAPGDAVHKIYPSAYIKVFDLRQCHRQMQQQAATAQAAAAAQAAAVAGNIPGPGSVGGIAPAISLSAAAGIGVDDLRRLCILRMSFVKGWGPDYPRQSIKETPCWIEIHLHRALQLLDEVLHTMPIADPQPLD

[1] = biological target: T2, SARA Smad-binding domain (amino acids 665–721) on the 3xFlag-thioredoxin scaffold (UniProt O95405 767-823)
T2 construct: SARA, amino acids 665–721; cloned into the unique RsrII site of pCI-3xFLAG-Trx; also called SARA aa665–721; TrxSARA; source: HEK-293, transfected, in lysate
T2 sequence (looked up): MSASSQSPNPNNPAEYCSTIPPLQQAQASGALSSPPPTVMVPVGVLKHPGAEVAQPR

[2] = biological target: T3, Smurf2 Smad-binding domain (amino acids 252–330) on the Flag-thioredoxin scaffold (UniProt Q9HAU4 252-330)
T3 construct: Smurf2, amino acids 252–330; also called Smurf2 aa252–330; TrxSmurf2; source: HEK-293, transfected, in lysate
T3 sequence (Q9HAU4 252-330): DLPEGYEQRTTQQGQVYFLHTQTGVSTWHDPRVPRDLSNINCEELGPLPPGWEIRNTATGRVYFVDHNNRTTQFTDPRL

[3] = biological target: T4, Ski Smad-binding domain (amino acids 2–56) on the 3xFlag-thioredoxin scaffold (UniProt P12755 2-56)
T4 construct: Ski, amino acids 2–56; cloned into the unique RsrII site of pCI-3xFLAG-Trx; also called Ski aa2–56; TrxSki; source: HEK-293, transfected, in lysate
T4 sequence (looked up): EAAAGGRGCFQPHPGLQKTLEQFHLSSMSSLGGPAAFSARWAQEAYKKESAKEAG

Binder	percent binding relative to wild-type Smad3 (Flag-Smad4, full length)	percent binding relative to wild-type Smad3 [1]	percent binding relative to wild-type Smad3 [2]	percent binding relative to wild-type Smad3 [3]
Renilla luciferase-Smad3 D408H (natural protein, UniProt P84022 1-425, looked up, Smad3; source: HEK-293, transfected together with constitutively active Alk5, in lysate) MSSILPFTPPIVKRLLGWKKGEQNGQEEKWCEKAVKSLVKKLKKTGQLDELEKAITTQNVNTKCITIPRSLDGRLQVSHRKGLPHVIYCRLWRWPDLHSHHELRAMELCEFAFNMKKDEVCVNPYHYQRVETPVLPPVLVPRHTEIPAEFPPLDDYSHSIPENTNFPAGIEPQSNIPETPPPGYLSEDGETSDHQMNHSMDAGSPNLSPNPMSPAHNNLDLQPVTYCEPAFWCSISYYELNQRVGETFHASQPSMTVDGFTDPSNSERFCLGLLSNVNRNAAVELTRRHIGRGVRLYYIGGEVFAECLSDSAIFVQSPNCNQRYGWHPATVCKIPPGCNLKIFNNQEFAALLAQSVNQGFEAVYQLTRMCTIRMSFVKGWGAEYRRQTVTSTPCWIELHLNGPLQWLHKVLTQMGSPSIRCSSVS	3%	125%	23%	3%
Renilla luciferase-Smad3 Y297A (natural protein, UniProt P84022 1-425, looked up, Smad3; source: HEK-293, transfected together with constitutively active Alk5, in lysate) MSSILPFTPPIVKRLLGWKKGEQNGQEEKWCEKAVKSLVKKLKKTGQLDELEKAITTQNVNTKCITIPRSLDGRLQVSHRKGLPHVIYCRLWRWPDLHSHHELRAMELCEFAFNMKKDEVCVNPYHYQRVETPVLPPVLVPRHTEIPAEFPPLDDYSHSIPENTNFPAGIEPQSNIPETPPPGYLSEDGETSDHQMNHSMDAGSPNLSPNPMSPAHNNLDLQPVTYCEPAFWCSISYYELNQRVGETFHASQPSMTVDGFTDPSNSERFCLGLLSNVNRNAAVELTRRHIGRGVRLAYIGGEVFAECLSDSAIFVQSPNCNQRYGWHPATVCKIPPGCNLKIFNNQEFAALLAQSVNQGFEAVYQLTRMCTIRMSFVKGWGAEYRRQTVTSTPCWIELHLNGPLQWLDKVLTQMGSPSIRCSSVS	181%	8%	119%	1%

From article PMC3176292, “Mutations in Protein-Binding Hot-Spots on the Hub Protein Smad3 Differentially Affect Its Protein Interactions and Smad3-Regulated Gene Expression” (PLoS ONE, 2011)
